Assay results as given in patent US20110206671A1, “AXON REGENERATION PROMOTER” (priority 2004, published 2011).

B1: RGM-like protein: rat protein homologous to chicken repulsive guidance molecule, released from RGM-CHO cells by PI-PLC; SEQ ID NO: 4 (protein, listed as Rattus norvegicus)
chain: MGRGAGRSALGLWPTLAFLLCSFPAAISPCKILKCNSEFWSATSSGSHAPASDDVPEFCAALRTYALCTRRTARTCRGDLAYHSAVHGIEDLMSQHNCSKDGPTSQPRVRTLPPAGDSQERSDSPEICHYEKSFHKHSAAPNYTHCGLFGDPHLRTFTDHFQTCKVQGAWPLIDNNYLNVQVTNTPVLPGSAATATSKLTIIFKNFQECVDQKVYQAEMDELPSAFADGSKNGGDKHGANSLKITEKVSGQHVEIQAKYIGTTIVVRQVGRYLTFAVRMPEEVVNAVEDRDSQGLYLCLRGCPLNQQIDFQAFRANAESPRRPAAASPSPVVPETFPYETAVAKCKEKLPVEDLYYQACVFDLLTTGDVNFTLAAYYALEDGKMLHSNKDKLHLFERTRELPGAVAAAAFPLAPEMLPGTVTLLVLLPLFW

Legend:
[1] = tested on: cerebellar granule neurons on rat RGM-like protein-expressing CHO cells; experiment: Axon growth assay, coculture of cerebellar granule neurons on RGM-CHO cells; format: cell-based; details: 10 μM Y27632 added, 24 hours, compared with control CHO cells
Procedure: Cerebellar granule cells from rat pups at 8 days post-natal (P8) were dissociated by trypsinization (0.25% trypsin in PBS, 37° C., 15 minutes); resuspended in serum-containing medium; triturated; and washed three times with PBS. For the coculture assay, neurons were plated onto a confluent monolayer of RGM-CHO cells or control CHO cells in chamber slides. 10 μM Y27632 (Welfide Corporation, Osaka) was added to the cultures to inhibit ROCK (Rho kinase). The cultures were grown for 24 hours in serum-free DMEM/F12 medium.
(§1) For the soluble RGM assay, confluent monolayers of RGM-CHO cells or control CHO cells were incubated in serum-free DMEM/F12 with or without 2.5 U/mL PI-PLC (phosphatidylinositol-specific phospholipase C, Sigma). After the culture were centrifuged for 10 minutes at 13000 g, floating cells were removed by collecting the supernatant. A portion of the supernatant was subjected to Western blot analysis. Neurons were plated on the conditioned media on poly-L-lysine-coated chamber slides and were incubated for 12 or 24 hours. For the axon assay, the cells were fixed with 4% (w/v) paraformaldehyde and immunostained with a monoclonal antibody that recognizes β-tubulin III protein specifically present in neurons (TuJ1, 1:1000, Covance Research Products, Inc., Denver, USA). The length of the longest neurite for each β-tubulin III-positive neuron was then measured.

RhoA = experiment: Affinity precipitation of GTP-RhoA; format: cell-based, rat; details: cerebellar neurons from 7-day postnatal rats; 30 minutes after conditioned medium
Procedure: Cells were lysed in 50 mM Tris (pH 7.5) containing 1% Triton X-100 (TM), 0.5% sodium deoxycholate, 0.1% SDS, 500 mM NaCl, 10 mM MgCl2, 10 μg/mL leupeptin, and 10 μg/mL aprotinin.
The cell lysate was cleared by centrifugation at 4° C. for 10 minutes×13000 g, and the supernatant was incubated for 45 minutes at 4° C. with 20 μg GST-Rho binding domain of Rhotekin beads (TM, Upstate Biotech). The beads were washed four times with washing buffer (50 mM Tris (pH 7.5) containing 1% Triton X-100 (TM), 150 mM NaCl, 10 mM MgCl2, and 10 μg/mL each of leupeptin and aprotinin). Bound Rho was detected by Western blotting using monoclonal antibody against RhoA (Santa Cruz Biotech, Santa Cruz, Calif., USA).
The RhoA activity in neurons was measured. Conditioned medium was added to cerebellar neurons from 7-day postnatal rats and the RhoA activity was measured after 30 minutes had elapsed (FIG. 6).

[2] = tested on: cerebellar granule neurons; experiment: Soluble RGM axon growth assay with conditioned media; format: cell-based, rat; details: medium obtained by PI-PLC treatment of RGM-like protein-expressing CHO cells; versus control CHO medium
Procedure: as §1

Molecule	axon growth (average length of the longest axon of each neuron) [1]	RhoA activity in neurons (GTP-RhoA) (RhoA)	axon growth of neurons treated with conditioned medium [2]
CC(N)[C@H]1CC[C@H](C(=O)Nc2ccncc2)CC1 (stereo partly drawn) [Y27632]	axon growth was about the same as for the control	–	–
B1	–	Rho activation was confirmed	significantly inhibited
